# Laboratory results taken from article PMC4275594 (Nature Communications, 2014).
# Target: C-terminal 6xHis tagged IL-18Rβ extracellular domains (residues 15-356), for SPR (human) (UniProt O95256)
# Assay: SPR; BIAcore 3000, 25 °C, C-terminal 6xHis IL-18Rβ immobilised (~100 RU) on an NTA sensor chip, un-tagged IL-18Rα saturated with 500 nM IL-18 as analyte in HBS-P
# Settings: not given
row,Molecule,Kd
1,IL-18 D110A/IL-18Rα WT complex (SPR analyte) (from UniProt Q13478 20-329),56 nM
2,IL-18 G145A/IL-18Rα WT complex (SPR analyte) (from UniProt Q13478 20-329),28 nM
3,IL-18 R147A/IL-18Rα WT complex (SPR analyte) (from UniProt Q13478 20-329),57 nM

# Target: T1, IL-18 WT/IL-18Rα WT complex (SPR analyte) (human, UniProt Q14116 37-193; Q13478 20-329)
# T1 construct: human interleukin-18, mature IL-18 (residues 1-157); numbers count on: the mature protein; human IL-18 receptor α, extracellular domains, residues 20-329 of NM_003855, printed as un-tagged; also called IL-18/IL-18Rα binary complex; IL-18 WT(control); source: IL-18: E. coli BL21(DE3), purified; IL-18Rα: silkworm larvae haemolymph, purified; un-tagged IL-18Rα saturated with 500 nM IL-18
# Assay: as above
# Settings: both partners purified
row,Molecule,Kd
1,"IL-18Rβ L167A, C-terminal 6xHis tagged extracellular domains (residues 15-356), for SPR (domain or fragment, human, UniProt O95256-1 15-356, looked up, human IL-18 receptor β, extracellular domains, residues 15-356 of NM_003853; source: silkworm (B. mori) larvae, BmNPV bacmid, haemolymph, purified as from Sf9; not shown: 6xHis, C-terminal, kept) ERIKGFNISGCSTKKLLWTYSTRSEEEFVLFCDLPEPQKSHFCHRNRLSPKQVPEHLPFMGSNDLSDVQWYQQPSNGDPLEDIRKSYPHIIQDKCTLHFLTPGVNNSGSYICRPKMIKSPYDVACCVKMILEVKPQTNASCEYSASHKQDLLAGSTGSISCPSLSCQSDAQSPAVTWYKNGKLLSVERSNRIVVDEVYDYHQGTYVCDYTQSDTVSSWTVRAVVQVRTIVGDTKLKPDILDPVEDTLEVELGKPLTISCKARFGFERVFNPVIKWYIKDSDLEWEVSVPEAKSIKSTLKDEIIERNIILEKVTQRDLRRKFVCFVQNSIGNTTQSVQLKEKR",33 nM
2,"IL-18Rβ Y214A, C-terminal 6xHis tagged extracellular domains (residues 15-356), for SPR (domain or fragment, human, UniProt O95256-1 15-356, looked up, human IL-18 receptor β, extracellular domains, residues 15-356 of NM_003853; source: silkworm (B. mori) larvae, BmNPV bacmid, haemolymph, purified as from Sf9; not shown: 6xHis, C-terminal, kept) ERIKGFNISGCSTKKLLWTYSTRSEEEFVLFCDLPEPQKSHFCHRNRLSPKQVPEHLPFMGSNDLSDVQWYQQPSNGDPLEDIRKSYPHIIQDKCTLHFLTPGVNNSGSYICRPKMIKSPYDVACCVKMILEVKPQTNASCEYSASHKQDLLLGSTGSISCPSLSCQSDAQSPAVTWYKNGKLLSVERSNRIVVDEVYDAHQGTYVCDYTQSDTVSSWTVRAVVQVRTIVGDTKLKPDILDPVEDTLEVELGKPLTISCKARFGFERVFNPVIKWYIKDSDLEWEVSVPEAKSIKSTLKDEIIERNIILEKVTQRDLRRKFVCFVQNSIGNTTQSVQLKEKR",50 nM
3,"IL-18Rβ E210A, C-terminal 6xHis tagged extracellular domains (residues 15-356), for SPR (domain or fragment, human, UniProt O95256-1 15-356, looked up, human IL-18 receptor β, extracellular domains, residues 15-356 of NM_003853; In the luciferase reporter assay the same mutation stood in full-length IL-18Rβ (pcDNA3.1+) expressed in HEK293 cells; source: silkworm (B. mori) larvae, BmNPV bacmid, haemolymph, purified as from Sf9; not shown: 6xHis, C-terminal, kept) ERIKGFNISGCSTKKLLWTYSTRSEEEFVLFCDLPEPQKSHFCHRNRLSPKQVPEHLPFMGSNDLSDVQWYQQPSNGDPLEDIRKSYPHIIQDKCTLHFLTPGVNNSGSYICRPKMIKSPYDVACCVKMILEVKPQTNASCEYSASHKQDLLLGSTGSISCPSLSCQSDAQSPAVTWYKNGKLLSVERSNRIVVDAVYDYHQGTYVCDYTQSDTVSSWTVRAVVQVRTIVGDTKLKPDILDPVEDTLEVELGKPLTISCKARFGFERVFNPVIKWYIKDSDLEWEVSVPEAKSIKSTLKDEIIERNIILEKVTQRDLRRKFVCFVQNSIGNTTQSVQLKEKR",327 nM
4,"IL-18Rβ K313A, C-terminal 6xHis tagged extracellular domains (residues 15-356), for SPR (domain or fragment, human, UniProt O95256-1 15-356, looked up, human IL-18 receptor β, extracellular domains, residues 15-356 of NM_003853; In the luciferase reporter assay the same mutation stood in full-length IL-18Rβ (pcDNA3.1+) expressed in HEK293 cells; source: silkworm (B. mori) larvae, BmNPV bacmid, haemolymph, purified as from Sf9; not shown: 6xHis, C-terminal, kept) ERIKGFNISGCSTKKLLWTYSTRSEEEFVLFCDLPEPQKSHFCHRNRLSPKQVPEHLPFMGSNDLSDVQWYQQPSNGDPLEDIRKSYPHIIQDKCTLHFLTPGVNNSGSYICRPKMIKSPYDVACCVKMILEVKPQTNASCEYSASHKQDLLLGSTGSISCPSLSCQSDAQSPAVTWYKNGKLLSVERSNRIVVDEVYDYHQGTYVCDYTQSDTVSSWTVRAVVQVRTIVGDTKLKPDILDPVEDTLEVELGKPLTISCKARFGFERVFNPVIKWYIKDSDLEWEVSVPEAKSIKSTLADEIIERNIILEKVTQRDLRRKFVCFVQNSIGNTTQSVQLKEKR",109 nM

# Target: human IL-18 receptor beta extracellular domain (residues 15-356), C-terminal 6xHis, wild type, from silkworm (human) (UniProt O95256)
# Assay: SPR; BIAcore 3000, 25 °C; C-terminal 6xHis IL-18Rβ (wild type or mutant) immobilised at about 100 RU on a Ni-NTA sensor chip; un-tagged IL-18Rα saturated with 500 nM IL-18 (preformed binary complex) injected as analyte in HBS-P; triplicate
# Settings: not given
Molecule,Kd,kon
preformed binary complex of IL-18 K84A and un-tagged IL-18Rα wild type extracellular domain (from UniProt Q13478 20-329),18 nM,10000 M⁻¹ s⁻¹
preformed binary complex of IL-18 R147A and un-tagged IL-18Rα wild type extracellular domain (from UniProt Q13478 20-329),–,69000 M⁻¹ s⁻¹
preformed binary complex of IL-18 K79A and un-tagged IL-18Rα wild type extracellular domain (from UniProt Q13478 20-329),13 nM,13000 M⁻¹ s⁻¹

# Target: T2, preformed binary complex of IL-18 wild type and un-tagged IL-18Rα wild type extracellular domain (human, UniProt Q14116 37-193; Q13478 20-329)
# T2 construct: interleukin-18, human, mature IL-18 (residues 1-157); numbers count on: the mature protein; IL-18 receptor alpha, human, extracellular domains, residues 20-329 of NM_003855; also called IL-18 WT/IL-18Rα WT complex; IL-18/IL-18Rα; source: IL-18: E. coli BL21(DE3), purified; IL-18Rα: silkworm larvae haemolymph, purified; un-tagged IL-18Rα saturated with 500 nM IL-18
# Assay: as above
# Settings: both partners purified
Molecule,kon,Kd
"human IL-18 receptor beta extracellular domain (residues 15-356), C-terminal 6xHis, E210A (receptor, UniProt O95256-1 15-356, looked up, IL-18 receptor beta, human, extracellular domains, residues 15-356 of NM_003853; also called IL-18Rβ E210A; source: silkworm (B. mori) larvae, BmNPV bacmid, haemolymph, purified (ion exchange, Ni-NTA, gel filtration); not shown: 6xHis, C-terminal, kept) ERIKGFNISGCSTKKLLWTYSTRSEEEFVLFCDLPEPQKSHFCHRNRLSPKQVPEHLPFMGSNDLSDVQWYQQPSNGDPLEDIRKSYPHIIQDKCTLHFLTPGVNNSGSYICRPKMIKSPYDVACCVKMILEVKPQTNASCEYSASHKQDLLLGSTGSISCPSLSCQSDAQSPAVTWYKNGKLLSVERSNRIVVDAVYDYHQGTYVCDYTQSDTVSSWTVRAVVQVRTIVGDTKLKPDILDPVEDTLEVELGKPLTISCKARFGFERVFNPVIKWYIKDSDLEWEVSVPEAKSIKSTLKDEIIERNIILEKVTQRDLRRKFVCFVQNSIGNTTQSVQLKEKR",71000 M⁻¹ s⁻¹,–
"human IL-18 receptor beta extracellular domain (residues 15-356), C-terminal 6xHis, S169A-T170A (receptor, UniProt O95256-1 15-356, looked up, IL-18 receptor beta, human, extracellular domains, residues 15-356 of NM_003853; also called IL-18RβS169A-T170A; source: silkworm (B. mori) larvae, BmNPV bacmid, haemolymph, purified (ion exchange, Ni-NTA, gel filtration); not shown: 6xHis, C-terminal, kept) ERIKGFNISGCSTKKLLWTYSTRSEEEFVLFCDLPEPQKSHFCHRNRLSPKQVPEHLPFMGSNDLSDVQWYQQPSNGDPLEDIRKSYPHIIQDKCTLHFLTPGVNNSGSYICRPKMIKSPYDVACCVKMILEVKPQTNASCEYSASHKQDLLLGAAGSISCPSLSCQSDAQSPAVTWYKNGKLLSVERSNRIVVDEVYDYHQGTYVCDYTQSDTVSSWTVRAVVQVRTIVGDTKLKPDILDPVEDTLEVELGKPLTISCKARFGFERVFNPVIKWYIKDSDLEWEVSVPEAKSIKSTLKDEIIERNIILEKVTQRDLRRKFVCFVQNSIGNTTQSVQLKEKR",68000 M⁻¹ s⁻¹,77 nM
"human IL-18 receptor beta extracellular domain (residues 15-356), C-terminal 6xHis, Y214A (receptor, UniProt O95256-1 15-356, looked up, IL-18 receptor beta, human, extracellular domains, residues 15-356 of NM_003853; also called IL-18Rβ Y214A; source: silkworm (B. mori) larvae, BmNPV bacmid, haemolymph, purified (ion exchange, Ni-NTA, gel filtration); not shown: 6xHis, C-terminal, kept) ERIKGFNISGCSTKKLLWTYSTRSEEEFVLFCDLPEPQKSHFCHRNRLSPKQVPEHLPFMGSNDLSDVQWYQQPSNGDPLEDIRKSYPHIIQDKCTLHFLTPGVNNSGSYICRPKMIKSPYDVACCVKMILEVKPQTNASCEYSASHKQDLLLGSTGSISCPSLSCQSDAQSPAVTWYKNGKLLSVERSNRIVVDEVYDAHQGTYVCDYTQSDTVSSWTVRAVVQVRTIVGDTKLKPDILDPVEDTLEVELGKPLTISCKARFGFERVFNPVIKWYIKDSDLEWEVSVPEAKSIKSTLKDEIIERNIILEKVTQRDLRRKFVCFVQNSIGNTTQSVQLKEKR",97000 M⁻¹ s⁻¹,–
"human IL-18 receptor beta extracellular domain (residues 15-356), C-terminal 6xHis, L167A (receptor, UniProt O95256-1 15-356, looked up, IL-18 receptor beta, human, extracellular domains, residues 15-356 of NM_003853; also called IL-18Rβ L167A; source: silkworm (B. mori) larvae, BmNPV bacmid, haemolymph, purified (ion exchange, Ni-NTA, gel filtration); not shown: 6xHis, C-terminal, kept) ERIKGFNISGCSTKKLLWTYSTRSEEEFVLFCDLPEPQKSHFCHRNRLSPKQVPEHLPFMGSNDLSDVQWYQQPSNGDPLEDIRKSYPHIIQDKCTLHFLTPGVNNSGSYICRPKMIKSPYDVACCVKMILEVKPQTNASCEYSASHKQDLLAGSTGSISCPSLSCQSDAQSPAVTWYKNGKLLSVERSNRIVVDEVYDYHQGTYVCDYTQSDTVSSWTVRAVVQVRTIVGDTKLKPDILDPVEDTLEVELGKPLTISCKARFGFERVFNPVIKWYIKDSDLEWEVSVPEAKSIKSTLKDEIIERNIILEKVTQRDLRRKFVCFVQNSIGNTTQSVQLKEKR",76000 M⁻¹ s⁻¹,–
"human IL-18 receptor beta extracellular domain (residues 15-356), C-terminal 6xHis, K313A (receptor, UniProt O95256-1 15-356, looked up, IL-18 receptor beta, human, extracellular domains, residues 15-356 of NM_003853; also called IL-18Rβ K313A; source: silkworm (B. mori) larvae, BmNPV bacmid, haemolymph, purified (ion exchange, Ni-NTA, gel filtration); not shown: 6xHis, C-terminal, kept) ERIKGFNISGCSTKKLLWTYSTRSEEEFVLFCDLPEPQKSHFCHRNRLSPKQVPEHLPFMGSNDLSDVQWYQQPSNGDPLEDIRKSYPHIIQDKCTLHFLTPGVNNSGSYICRPKMIKSPYDVACCVKMILEVKPQTNASCEYSASHKQDLLLGSTGSISCPSLSCQSDAQSPAVTWYKNGKLLSVERSNRIVVDEVYDYHQGTYVCDYTQSDTVSSWTVRAVVQVRTIVGDTKLKPDILDPVEDTLEVELGKPLTISCKARFGFERVFNPVIKWYIKDSDLEWEVSVPEAKSIKSTLADEIIERNIILEKVTQRDLRRKFVCFVQNSIGNTTQSVQLKEKR",103000 M⁻¹ s⁻¹,–

# Target: human IL-18 receptor alpha extracellular domain (residues 20-329), C-terminal 6xHis, wild type, from silkworm (human) (UniProt Q13478)
# Sequence (Q13478 20-329): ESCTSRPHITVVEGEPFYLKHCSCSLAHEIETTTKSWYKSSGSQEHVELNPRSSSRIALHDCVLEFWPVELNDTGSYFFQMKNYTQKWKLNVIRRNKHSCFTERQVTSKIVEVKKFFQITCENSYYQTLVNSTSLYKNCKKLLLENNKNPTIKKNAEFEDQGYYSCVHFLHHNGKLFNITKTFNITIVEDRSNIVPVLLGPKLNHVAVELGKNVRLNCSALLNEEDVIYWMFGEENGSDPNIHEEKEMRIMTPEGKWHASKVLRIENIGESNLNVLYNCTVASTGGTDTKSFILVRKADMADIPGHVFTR
# Assay: SPR; BIAcore 3000, 25 °C; C-terminal 6xHis IL-18Rα (wild type or mutant) immobilised at about 200 RU on a Ni-NTA sensor chip; IL-18 (wild type or mutant) injected as analyte in HBS-P (10 mM HEPES-Na pH 7.4, 150 mM NaCl, 0.01% P-20), 30 µl/min, 180 s association, 360 s dissociation; triplicate
# Settings: not given
Molecule,Kd,kon
"human interleukin-18, mature, D110A (ligand)",23 nM,106000 M⁻¹ s⁻¹
"human interleukin-18, mature, K112A (ligand)",51 nM,64000 M⁻¹ s⁻¹
"human interleukin-18, mature, M150A (ligand)",59 nM,57000 M⁻¹ s⁻¹
"human interleukin-18, mature, R147A (ligand)",67 nM,68000 M⁻¹ s⁻¹
"human interleukin-18, mature, H109A (ligand)",48 nM,62000 M⁻¹ s⁻¹
"human interleukin-18, mature, G145A (ligand)",57 nM,59000 M⁻¹ s⁻¹
"human interleukin-18, mature, G108A (ligand)",184 nM,52000 M⁻¹ s⁻¹
"human interleukin-18, mature, K79A (ligand)",55 nM,76000 M⁻¹ s⁻¹
